Laboratory results: PMC10228544 (Science immunology, 2023)
Where a chain is given by its changes, count along the chain named. Numbers in names are those of the source.

B1: SJ25C1^WT CAR (SJ25C1 scFv, CD28, CD3-zeta) on CAR T cells (receptor)
VH: EVKLQQSGAELVRPGSSVKISCKASGYAFSSYWMNWVKQRPGQGLEWIGQIYPGDGDTNYNGKFKGQATLTADKSSSTAYMQLSGLTSEDSAVYFCARKTISSVVDFYFDYWGQGTTVTVSS
VL: DIELTQSPKFMSTSVGDRVSVTCKASQNVGTNVAWYQQKPGQSPKPLIYSATYRNSGVPDRFTGSGSGTDFTLTITNVQSKDLADYFCQQYNRYPYTSGGGTKLEIK
B2: SJ25C1^W52F CAR on CAR T cells (receptor)
VH: B1 VH with W33F
VL: B1 VL
B3: SJ25C1^I120V CAR on CAR T cells (receptor)
VH: B1 VH with I101V
VL: B1 VL
B4: FMC63^Y261A CAR on CAR T cells (receptor)
VH: EVKLQESGPGLVAPSQSLSVTCTVSGVSLPDYGVSWIRQPPRKGLEWLGVIWGSETTYYNSALKSRLTIIKDNSKSQVFLKMNSLQTDDTAIYYCAKHYYAGGSYAMDYWGQGTSVTVSS
VL: DIQMTQTTSSLSASLGDRVTISCRASQDISKYLNWYQQKPDGTVKLLIYHTSRLHSGVPSRFSGSGSGTDYSLTISNLEQEDIATYFCQQGNTLPYTFGGGTKLEIT

What follows are binders tested against Alexa-Fluor-488-conjugated recombinant hCD19-hFc (Homo sapiens, UniProt P15391, Alexa Fluor 488 conjugate) (assay: flow cytometry on cells).
Alexa-Fluor-488-conjugated recombinant hCD19-hFc, sequence (P15391 20-291): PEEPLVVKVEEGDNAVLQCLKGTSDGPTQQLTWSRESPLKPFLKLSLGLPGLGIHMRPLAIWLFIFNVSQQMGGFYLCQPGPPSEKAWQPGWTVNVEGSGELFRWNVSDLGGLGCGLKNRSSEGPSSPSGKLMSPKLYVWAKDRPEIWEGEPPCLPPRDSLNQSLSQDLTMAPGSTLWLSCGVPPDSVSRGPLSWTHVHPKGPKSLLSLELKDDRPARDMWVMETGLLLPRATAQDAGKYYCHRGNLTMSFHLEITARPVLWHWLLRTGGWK

Binding result, binds:
B1
B2
B3
B4
